According to the supplement of paper PMC10567573:
± gives the standard deviation.

Test: protein stability index of a GFP-peptide fusion (GPS, HEK-293T) (PSI 1-6); higher = more stable
Conditions: c terminus: a fixed tail appended
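Also: 24-mer peptide tiles fused after GFP, lentivirally expressed, FACS-sorted into six equal bins by GFP/DsRed ratio, decoded by Illumina sequencing, PSI is the read-weighted mean bin number.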

Sequence	protein stability index (treatment: DMSO)	protein stability index (treatment: MLN4924 1 uM, 8 h)
HFRPRFHPLPTVIIVNLLWFIHLV [TMEM192]	2.63 ± 0.48	2.82 ± 0.79
LEQASSHIGNSTQATVRDAVVGRP [ATL3]	5.03 ± 0.26	5.03 ± 0.35
AVAVDVAVPKRLLEIVGREGVSLT [HAGHL]	2.84 ± 0.23	2.84 ± 0.19
LRTLFTDLFEKKGYTFDYAYDWVG [CSNK1G1]	2.2 ± 0.21	2.12 ± 0.39
TLPLQDRELGPEELDELQAAFEEF [CABP4]	5.27 ± 0.23	5.27 ± 0.24
HNRKVLTIFSASNYYEVGSNRGAY [PPEF2]	2.44 ± 0.28	2.46 ± 0.24
RAVLGGLSQTDPRAGGGGGGDYGL [PPTC7]	4.01 ± 0.84	3.85 ± 1.5
ESQLDPSNCLGIRDFAETHNCVDL [KLHL12]	3.9 ± 0.45	4.26 ± 0.49
IGLRLVLEYLYTANVTLSLDTVEE [KLHL14]	2.96 ± 0.5	3.02 ± 0.47
RLKKQLRAAQLQHSEKMAQYLEEE [CCDC6]	4.06 ± 0.29	4.11 ± 0.26
SLDESVIYGPGNLSTNNNTLRDHF [SLC2A12]	3.63 ± 0.31	3.6 ± 0.27
TLERYMCSRFFIDFPDILEQQRKL [TENT5C]	2.35 ± 0.16	2.37 ± 0.037
FSDIPSPYLRGTIKMMQAVRQAFQ [GFOD1]	2.38 ± 0.2	2.17 ± 0.17
LQQERQRLGQRQPPPSEPTQGPEI [DNAJC4]	5.52 ± 0.16	5.16 ± 0.081
LVDMDMADYSAALDPAYTTLEFEN [HNF4A]	4.24 ± 0.19	4.35 ± 0.054
RPELPPVCRARPRACSHLIRLMQR [RIPK4]	2.52 ± 0.26	2.49 ± 0.31
LREIAFTRQLHEKTSQLSYYYMGF [ATE1]	2.31 ± 0.35	2.34 ± 0.24

Sequence	protein stability index (treatment: DMSO)	protein stability index (treatment: MLN4924 1 uM, 8 h)
FQDAIFPDTQENRRMFSSLFQFSN [CCDC3]	2.38 ± 0.43	2.58 ± 0.37
PYIQLPSHSNITGIVEVILGETKA [TRIB1]	2.63 ± 0.48	2.67 ± 0.52
HDGKPSEGSYRIHVLHHGTGKWYE [USP39]	2.71 ± 0.2	2.88 ± 0.16
KINLQGDIVDRGSTNLGVNQAGFT [ADD1]	3.74 ± 0.25	3.83 ± 0.19
RLFLDGEEEKEWAFEESKIDEHHF [AASDHPPT]	4.37 ± 0.26	4.42 ± 0.21
RQVPGSDPACYEFLWGPRALIETS [MAGEA6]	2.62 ± 0.56	2.85 ± 0.35
HNCVDLMQAAEVFSQKHFPEVVQH [KLHL12]	3.17 ± 0.16	3.14 ± 0.38
GSSSSSSSSINSPDRASGPEGSLS [FAM104A]	5.5 ± 0.22	5.45 ± 0.2
PEPVYFHCAAVTPAGCMYIHGGVV [KLHDC10]	2.53 ± 0.56	2.85 ± 0.71
LREINFKIVEFNPMVLKGKIRPDS [GLT8D2]	2.39 ± 0.34	2.41 ± 0.41
WEPFDWGRLLEALCREEPVVQGPD [FANCE]	3.001 ± 0.014	3.22 ± 0.23
LEQKTQESQKKKQQDDSDEYDDDD [ZNF207]	5.62 ± 0.12	5.61 ± 0.34
AAEVGTGQYATTKGISQTNLITTV [EPB41L3]	3.54 ± 0.13	3.5 ± 0.41
NYSYRGYGALSSNLQPPASLQTGN [NOL4L]	3.64 ± 0.2	3.8 ± 0.25
LLDDSKTWWRVRNAANRTGYVPSN [NCK2]	2.93 ± 0.23	2.79 ± 0.15
EEKADVLARGPLNQTALHLAAAHG [RIPK4]	4.5 ± 0.17	–
